Assay results: paper PMC6411835 (Nucleic Acids Research, 2018)

T1: surface-lysine methylated Zip2^499–704 (S. cerevisiae, UniProt P53061 499-704)
T1 sequence: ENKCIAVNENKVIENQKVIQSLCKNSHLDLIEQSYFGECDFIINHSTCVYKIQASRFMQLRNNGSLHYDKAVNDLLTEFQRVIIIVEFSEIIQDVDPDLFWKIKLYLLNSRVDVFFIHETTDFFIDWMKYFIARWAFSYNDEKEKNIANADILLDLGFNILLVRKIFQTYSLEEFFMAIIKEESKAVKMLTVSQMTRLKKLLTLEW

B1: surface-lysine methylated His6-Spo16 (natural protein)
chain: SEFFWDVQKIQEISNVEEHSVVKCVTVNTSRLISQLNEELQDEESGVNFIVTQLQLLINNVYEKIQKSPGVPAHRSLMINLNFTRLKFSIAYWDILLERSLDLINGPSKTGARYFITEVTPVDRSRYVENNQYFLAFKANQRLTRNSVDMDEFIDFEILIKQIIFDLFKKNGIPDQDFEAILSRFHNLESLVVAFNE
modifications: surface lysine residues dimethylated (dimethyllysine)
B2: Zip2^499–704 (domain or fragment)
chain: T1 sequence
B3: His6-Spo16 (natural protein)
chain: B1 chain

How the values were obtained:
[1] = molecular target: T1, surface-lysine methylated Zip2^499–704; assay: crystal structure
[2] = molecular target: B3; assay: SEC-MALS
[3] = molecular target: B2; assay: co-purification after co-expression

Binder: B1
binding result [1]: binds

Binder: B2
stoichiometry N [2]: 1

Binder: B3
binding result [3]: binds
